Experimental data reported in US20240124560A1.

Legend:
Assay in all cases: cell-based or functional assay
[1] = target: HIV-1 Env of pseudovirus NIH-004_PVO.4 (HIV-1)
[2] = target: HIV-1 Env of pseudovirus NIH-091_231965.c01 (clade D) (HIV-1)
[3] = target: HIV-1 Env of pseudovirus NAC_MN (HIV-1) (UniProt P05877)
[4] = target: HIV-1 Env of pseudovirus NIH-046_1394C9G1(Rev.) (HIV-1)
[5] = target: HIV-1 Env of NIH-039_Ce2060 G9 (HIV-1)
[6] = target: HIV-1 Env of pseudovirus NAC_92RW020 (HIV-1)
[7] = target: HIV-1 Env of NIH-011_1056.10.TA11.1826 (HIV-1)
[8] = target: HIV-1 Env of pseudovirus NIH-116_T263.8 (HIV-1)
[9] = target: HIV-1 Env of NAC_94UG103 (HIV-1)
[10] = target: HIV-1 Env of pseudovirus NIH-058_Q23ENV17 (HIV-1)
[11] = target: HIV-1 Env of NIH-008_WEAU.d15.410.787 (HIV-1)
[12] = target: HIV-1 Env of NIH-035_Ce1176 A3 (HIV-1)
[13] = target: HIV-1 Env of NIH-043_ZM249M.B10 (HIV-1)
[14] = target: HIV-1 Env of pseudovirus NIH-042_ZM246F.D5 (HIV-1)
[15] = target: HIV-1 Env of NIH-050_CNE21 (HIV-1)
[16] = target: HIV-1 Env of pseudovirus NAC_SS1196.1 (HIV-1)
[17] = target: HIV-1 Env of NHI-028_CAP210.E8 (HIV-1)
[18] = target: HIV-1 Env of pseudovirus NIH-074_C4118.c09 (HIV-1)
[19] = target: HIV-1 Env of NIH-025_ZM109F.PB4 (HIV-1)
[20] = target: HIV-1 Env of NIH-006_AC10.0.29 (HIV-1)
[21] = target: HIV-1 Env of pseudovirus NIH-098_89.F1 2 25 (clade CD) (HIV-1)
[22] = target: HIV-1 Env of pseudovirus NIH-094_3817.v2.c59 (HIV-1)
[23] = target: HIV-1 Env of NIH-056_Q168ENVa2 (HIV-1)
[24] = target: HIV-1 Env of pseudovirus NIH-099_3301.v1.c24 (HIV-1)
[25] = target: HIV-1 Env of pseudovirus NIH-056_Q168ENVa2 (HIV-1)
[26] = target: HIV-1 Env of NAC_MN (HIV-1) (UniProt P05877)
Chain of HIV-1 Env of NAC_MN (HIV-1) (P05877 32-856 limits assumed): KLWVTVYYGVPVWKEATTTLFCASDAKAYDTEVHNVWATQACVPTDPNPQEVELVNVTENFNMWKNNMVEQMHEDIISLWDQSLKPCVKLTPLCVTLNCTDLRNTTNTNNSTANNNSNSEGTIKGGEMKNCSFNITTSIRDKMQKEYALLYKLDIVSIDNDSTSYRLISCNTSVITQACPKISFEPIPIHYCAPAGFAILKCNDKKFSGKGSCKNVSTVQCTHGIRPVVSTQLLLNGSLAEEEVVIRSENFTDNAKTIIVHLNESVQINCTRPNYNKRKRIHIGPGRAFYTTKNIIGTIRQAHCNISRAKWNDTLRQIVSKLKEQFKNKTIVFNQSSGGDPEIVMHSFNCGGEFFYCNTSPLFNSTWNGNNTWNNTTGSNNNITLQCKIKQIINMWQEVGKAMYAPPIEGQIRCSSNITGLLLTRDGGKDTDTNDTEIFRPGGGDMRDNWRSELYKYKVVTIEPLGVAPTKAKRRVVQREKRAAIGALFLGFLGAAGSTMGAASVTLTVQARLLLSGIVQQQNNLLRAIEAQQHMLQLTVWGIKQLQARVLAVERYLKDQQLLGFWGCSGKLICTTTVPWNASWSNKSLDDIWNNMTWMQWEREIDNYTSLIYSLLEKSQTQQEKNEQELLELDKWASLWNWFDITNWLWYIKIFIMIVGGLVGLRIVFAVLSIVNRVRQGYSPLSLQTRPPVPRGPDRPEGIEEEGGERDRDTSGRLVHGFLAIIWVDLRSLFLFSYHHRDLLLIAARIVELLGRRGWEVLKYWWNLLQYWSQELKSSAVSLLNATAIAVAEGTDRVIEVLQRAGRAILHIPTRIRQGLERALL

[27] = target: HIV-1 Env of pseudovirus NIH-057_MS208.A1 (HIV-1)
[28] = target: HIV-1 Env of NIH-101_6540.v4.c1 (HIV-1)
[29] = target: HIV-1 Env of pseudovirus NIH-024_ZM53M.PB12 (HIV-1)
[30] = target: HIV-1 Env of NIH-119_T211.9 (HIV-1)
[31] = target: HIV-1 Env of pseudovirus NIH-117_T278.5 (HIV-1)
[32] = target: HIV-1 Env of pseudovirus NIH-079_BJOX010000.06.2 (HIV-1)
[33] = target: HIV-1 Env of NIH-015_62357.14.D3.4589 (HIV-1)
[34] = target: HIV-1 Env of NIH-013_6240.08.TA5.4622 (HIV-1)
[35] = target: HIV-1 Env of pseudovirus NIH-038_Ce1172 H1 (HIV-1)
[36] = target: HIV-1 Env of NAC_REJO.67 (HIV-1)
[37] = target: HIV-1 Env of NIH-018_Du172.17 (HIV-1)
[38] = target: HIV-1 Env of NIH-070_R2184.c04 (HIV-1)
[39] = target: envelope protein of control pseudovirus NAC_AMLV
[40] = target: HIV-1 Env of pseudovirus NIH-080_BJOX025000.01.1 (HIV-1)
[41] = target: HIV-1 Env of pseudovirus NIH-005_TRO.11 (HIV-1)
[42] = target: HIV-1 Env of pseudovirus NIH-068_620345.c01 (HIV-1)
[43] = target: HIV-1 Env of NIH-075_CNE8 (HIV-1)
[44] = target: HIV-1 Env of pseudovirus NIH-066_191084 B7.19 (HIV-1)
[45] = target: HIV-1 Env of pseudovirus NIH-015_62357.14.D3.4589 (HIV-1)

Chain of HIV-1 Env of pseudovirus NAC_MN (HIV-1) (P05877 32-856): as the sequence (P05877 32-856 limits assumed) above

4E10 (antibody)
neutralization IC50 [1]: 9.59 µg/mL | IC50 (µg/ml), TZM-bl cell neutralization assay, pseudovirus [2]: 13.8 µg/mL | neutralization IC50 [3]: 0.005 µg/mL | neutralization IC50 [4]: 2.58 µg/mL | IC80 neutralization [5]: 5.1 µg/mL | neutralization IC50 [6]: 2.14 µg/mL | IC80 neutralization [7]: 2.81 µg/mL | neutralization IC50 [8]: 0.206 µg/mL | IC80 neutralization [9]: 7.48 µg/mL | neutralization IC50 [10]: 1.29 µg/mL | IC80 neutralization [11]: 2.59 µg/mL | IC80 neutralization [12]: 7.36 µg/mL | IC80 neutralization [13]: 4.55 µg/mL | neutralization IC50 [14]: 1.68 µg/mL | IC80 neutralization [15]: 2.15 µg/mL | neutralization IC50 [16]: 0.99 µg/mL | IC80 neutralization [17]: 3.53 µg/mL | neutralization IC50 [18]: 0.322 µg/mL | IC80 neutralization [19]: 3.17 µg/mL | IC80 neutralization [20]: 2.73 µg/mL | IC50 (µg/ml), TZM-bl cell neutralization assay, pseudovirus [21]: 5.11 µg/mL | neutralization IC50 [22]: 0.417 µg/mL | IC80 neutralization [23]: 15.1 µg/mL | neutralization IC50 [24]: 20.3 µg/mL | neutralization IC50 [25]: 3.78 µg/mL | IC80 neutralization [26]: 0.135 µg/mL | neutralization IC50 [27]: 0.678 µg/mL | IC80 neutralization [28]: 36.1 µg/mL | neutralization IC50 [29]: 10.4 µg/mL | IC80 neutralization [30]: 5.08 µg/mL | neutralization IC50 [31]: 1.48 µg/mL | neutralization IC50 [32]: 0.438 µg/mL | IC80 neutralization [33]: 11.6 µg/mL | IC80 neutralization [34]: 40.3 µg/mL | neutralization IC50 [35]: 8.81 µg/mL | IC80 neutralization [36]: 8.62 µg/mL | IC80 neutralization [37]: 0.474 µg/mL | IC80 neutralization [38]: 0.762 µg/mL | IC50 (µg/ml), TZM-bl cell neutralization assay, control pseudovirus [39]: > 50 µg/mL | IC80 (µg/ml), TZM-bl pseudovirus neutralization [39]: > 50 µg/mL | neutralization IC50 [40]: 0.377 µg/mL | neutralization IC50 [41]: 0.769 µg/mL | neutralization IC50 [42]: 0.663 µg/mL | IC80 neutralization [43]: 0.27 µg/mL | neutralization IC50 [44]: 1.23 µg/mL | neutralization IC50 [45]: 2.87 µg/mL

PGZL1 (antibody)
neutralization IC50 [1]: 49 µg/mL | IC50 (µg/ml), TZM-bl cell neutralization assay, pseudovirus [2]: > 50 µg/mL | neutralization IC50 [3]: 0.023 µg/mL | neutralization IC50 [4]: 7.87 µg/mL | IC80 neutralization [5]: > 50 µg/mL | neutralization IC50 [6]: 20.8 µg/mL | IC80 neutralization [7]: 14.9 µg/mL | neutralization IC50 [8]: 2.02 µg/mL | IC80 neutralization [9]: > 50 µg/mL | neutralization IC50 [10]: 16.5 µg/mL | IC80 neutralization [11]: 39.6 µg/mL | IC80 neutralization [12]: > 50 µg/mL | IC80 neutralization [13]: 25.6 µg/mL | neutralization IC50 [14]: 19.9 µg/mL | IC80 neutralization [15]: 17.8 µg/mL | neutralization IC50 [16]: 5.4 µg/mL | IC80 neutralization [17]: > 50 µg/mL | neutralization IC50 [18]: 8.37 µg/mL | IC80 neutralization [19]: 29.7 µg/mL | IC80 neutralization [20]: 18.8 µg/mL | IC50 (µg/ml), TZM-bl cell neutralization assay, pseudovirus [21]: > 50 µg/mL | neutralization IC50 [22]: 20.1 µg/mL | IC80 neutralization [23]: > 50 µg/mL | neutralization IC50 [24]: > 50 µg/mL | neutralization IC50 [25]: 21.7 µg/mL | IC80 neutralization [26]: 0.564 µg/mL | neutralization IC50 [27]: 10.1 µg/mL | IC80 neutralization [28]: > 50 µg/mL | neutralization IC50 [29]: > 50 µg/mL | IC80 neutralization [30]: > 50 µg/mL | neutralization IC50 [31]: 23.5 µg/mL | neutralization IC50 [32]: 1.66 µg/mL | IC80 neutralization [33]: > 50 µg/mL | IC80 neutralization [34]: > 50 µg/mL | neutralization IC50 [35]: 0.948 µg/mL | IC80 neutralization [36]: 40.2 µg/mL | IC80 neutralization [37]: 1.6 µg/mL | IC80 neutralization [38]: > 50 µg/mL | IC50 (µg/ml), TZM-bl cell neutralization assay, control pseudovirus [39]: > 50 µg/mL | IC80 (µg/ml), TZM-bl pseudovirus neutralization [39]: > 50 µg/mL | neutralization IC50 [40]: 7.13 µg/mL | neutralization IC50 [41]: 2.88 µg/mL | neutralization IC50 [42]: 12.6 µg/mL | IC80 neutralization [43]: 0.945 µg/mL | neutralization IC50 [44]: 30.9 µg/mL | neutralization IC50 [45]: 27.2 µg/mL

VRC01 (antibody)
neutralization IC50 [1]: 0.192 µg/mL | IC50 (µg/ml), TZM-bl cell neutralization assay, pseudovirus [2]: 0.183 µg/mL | neutralization IC50 [3]: 0.01 µg/mL | neutralization IC50 [4]: 0.28 µg/mL | IC80 neutralization [5]: 0.45 µg/mL | neutralization IC50 [6]: 0.206 µg/mL | IC80 neutralization [7]: 1.48 µg/mL | neutralization IC50 [8]: 0.124 µg/mL | IC80 neutralization [9]: 0.752 µg/mL | neutralization IC50 [10]: 0.038 µg/mL | IC80 neutralization [11]: 0.306 µg/mL | IC80 neutralization [12]: 4.99 µg/mL | IC80 neutralization [13]: 0.275 µg/mL | neutralization IC50 [14]: 10.7 µg/mL | IC80 neutralization [15]: 0.848 µg/mL | neutralization IC50 [16]: 0.166 µg/mL | IC80 neutralization [17]: > 50 µg/mL | neutralization IC50 [18]: 0.05 µg/mL | IC80 neutralization [19]: 0.296 µg/mL | IC80 neutralization [20]: 3.52 µg/mL | IC50 (µg/ml), TZM-bl cell neutralization assay, pseudovirus [21]: > 50 µg/mL | neutralization IC50 [22]: > 50 µg/mL | IC80 neutralization [23]: 0.218 µg/mL | neutralization IC50 [24]: 0.112 µg/mL | neutralization IC50 [25]: 0.056 µg/mL | IC80 neutralization [26]: 0.196 µg/mL | neutralization IC50 [27]: 0.063 µg/mL | IC80 neutralization [28]: > 50 µg/mL | neutralization IC50 [29]: 0.917 µg/mL | IC80 neutralization [30]: > 50 µg/mL | neutralization IC50 [31]: > 50 µg/mL | neutralization IC50 [32]: 1.77 µg/mL | IC80 neutralization [33]: 6.95 µg/mL | IC80 neutralization [34]: 2.62 µg/mL | neutralization IC50 [35]: > 50 µg/mL | IC80 neutralization [36]: 0.414 µg/mL | IC80 neutralization [37]: > 50 µg/mL | IC80 neutralization [38]: 0.413 µg/mL | IC50 (µg/ml), TZM-bl cell neutralization assay, control pseudovirus [39]: > 50 µg/mL | IC80 (µg/ml), TZM-bl pseudovirus neutralization [39]: > 50 µg/mL | neutralization IC50 [40]: 6.04 µg/mL | neutralization IC50 [41]: 0.231 µg/mL | neutralization IC50 [42]: > 50 µg/mL | IC80 neutralization [43]: 0.514 µg/mL | neutralization IC50 [44]: 0.049 µg/mL | neutralization IC50 [45]: 1.74 µg/mL
